Experimental data taken from the supplement of paper PMC7125110.
± gives the standard error. Fewer inactive variants are shown than the library holds.

B1: glmS ribozyme (parent)
chain: AUAAAAGCGCCAGAACUACAGAAAUGUAGUUGACGAGGAGGAGGUUUAUCGAAUUUUCGGCGGAUGCCUCCAAA

Legend:
Conditions in all cases: with glucosamine-6-phosphate
glucosamine-6-phosphate [1] = variants of: B1; experiment: self-cleavage kobs at 640 uM GlcN6P; higher = faster cleavage; RNA array
In short: (§1)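 A hybridised Cy3 probe tracked barcoded ribozyme variants, transcribed in situ by E. coli RNA polymerase on sequenced MiSeq chips, at 37 °C. The variants received 40 μM to 10 mM glucosamine-6-phosphate in HEPES/KCl/Mg(OAc)2 buffer. kobs came from decay fits and kcat and KM from weighted Michaelis–Menten fits.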

glucosamine-6-phosphate [2] = variants of: B1; experiment: self-cleavage kobs at 2500 uM GlcN6P; higher = faster cleavage; RNA array
In short: as §1

glucosamine-6-phosphate [3] = variants of: B1; experiment: self-cleavage kobs at 10000 uM GlcN6P; higher = faster cleavage; RNA array
In short: as §1

Variant	self-cleavage kobs at 640 uM GlcN6P (glucosamine-6-phosphate [1]) [s⁻¹]	self-cleavage kobs at 2500 uM GlcN6P (glucosamine-6-phosphate [2]) [s⁻¹]	self-cleavage kobs at 10000 uM GlcN6P (glucosamine-6-phosphate [3]) [s⁻¹]
AUAAAAGCGCCAGAACUACAGAAAUGUAGUUCACGAGGAGGAGGUUUAUCCAAUUUUCGGCGGGUGCCUUCAAA [G32C G51C A64G C70U]	< 1e-05		
AUAAAAGCGCCAGAACUACAGAAAUGUAGUUGACGAGGAGGAGGUUUACCGAAUAUUCGGCGGAUGCCUCCAAA [U49C U55A]	< 1e-05	< 1e-05	
AUAAAAGCGCCAGAACUACAGAAAUGUAGUUGACGAGGACGAGGUUUAUCGAAUUUUCGGCGGACGCCUCCAAA [G40C U65C]	4.51e-05 ± 1.9e-05		0.000172 ± 3.4e-05
AUAAAAGAGCCAGAAAUACAGAAAUGUAGUUGACGAGGUGGAGGUUUAUCGAAUUUUCUGCGGAUGCCUCCAAA [C8A C16A A39U G59U]	< 1e-05		
AUAAAAGCGCCAGAACUACAGAAAUGUAGUUGACGAGGAGGAGGUUUAUCGAAUUUUGGGCGGCUGUCUCCAAA [C58G A64C C67U]	7.21e-05 ± 2e-05		
AUAAAAGUGCCAGUACUACAGAAAUGUAGUUGACGAGGAGGAGGUUUAUCGAAUUUCCUGCGGAUGCCUCCAAA [C8U A14U U57C G59U]	< 1e-05		
AUAAAAGUGCCAGAACUACAGAAAUGUAGUUGACGAGGAGGAGGUUGAUCGAAUUUUCGGCGGAUGCCUCCAAA [C8U U47G]	< 1e-05		< 1e-05
AUAAAAGUGCCAGAACUACAGAAAUGUAGUUGACGAGGAGGAGGAUUUUUGAAUUUUCGGCGGAUGCCUCCAAA [C8U U45A A48U C50U]	< 1e-05	< 1e-05	
AUAAAAGCGCCAGAGCUACAGAAAUGUAGUUGACGAGGAGGAGGUUUAUCGAAUUUUAGGCGGAUGCCGCCAAA [A15G C58A U69G]	0.000122 ± 3.7e-05	8.9e-05 ± 2.5e-05	
AUAAAAGCGCCAGAACUACAGAAAUGUAGUGGACGUGUAGGAGGUUUUUCGACUUUUCCGCGGCUGCCUCCAAA [U31G A36U G38U A48U A53C G59C A64C]	< 1e-05		
AUAAAAGCGCCAGAACUACAGAAAUGUAGUUCACUAGGAGGAGGUUUAUCGAAUUUUCAGCGGAUGCCUCCAAA [G32C G35U G59A]	< 1e-05	< 1e-05	
AUAAAAGCGCCAGAACUACAGAAAUGUAGUUGACGAGGAGGAGGUUUAUCUAAUUUUCGGCUGAUGCCUUCAAA [G51U G62U C70U]	< 1e-05		
AUAAAAGCGCCAGAACUACAGAAAUGUAGCUUACGAGGAGGAGAUUUCUCGAAUUUACGGCGGAUGCCUCCAAA [U30C G32U G44A A48C U57A]	< 1e-05	< 1e-05	
AUAAAAGCGCCAGAACUACAGAAAUGUAGUUGACGAGGAGGAGGUUUAUCAAAUUUUCGGCGUAAGCCUCCAAA [G51A G63U U65A]	< 1e-05		
AUAAAGGCGCCAGAAAUACAGAAAUGUAGUUGACGAGGAGGAGUAUUAUCGAAUUUUCGGCGGAUGCCUCCAAA [A6G C16A G44U U45A]	< 1e-05	< 1e-05	
AUAAAAGCGCCAGAACUACAGAAAUGUAGUGGAGGAGGAGGAGGUUUAUCGAAUUUUCGGCGGAAGCCUCCAAA [U31G C34G U65A]	< 1e-05		
AUAAAAGCGCCAGAACUACAGAAAUGUAGUUGACGACGAGGAGGUUUAUCGAAUUUUCGGCUGAUGCUUCCAAA [G37C G62U C68U]	< 1e-05	< 1e-05	
AUAAAAGCGCCAGAACUACAGAAAUGUAGUUAACGAGGAGGAGGUUUAUCGAAUUUACGGCGGAUGCCUGCAAA [G32A U57A C70G]	0.000649 ± 0.00023		
AUAAAAGCGCCAGAACUACAGAAAUGUAGUUGAUGGGGAGGAGAUUUAUCGAAUUUUAGGCGGAUGCUUCCAAA [C34U A36G G44A C58A C68U]	< 1e-05	< 1e-05	
AUAAAAGCGCCAGAACUACAGAAAUGUAGUUGACGAUGAGGAGGUUUAUCAAAUUUUCGGCGGAUCCCUCCAAA [G37U G51A G66C]	< 1e-05		
AUAAAAGCGCCAGAACUACAGAAAUGUAGUUGACGAGCAGGAGGUUUAUCUAAUUUUCAACGGAUGCCUCCAAA [G38C G51U G59A G60A]	< 1e-05		
AUAAAAGCGCCAAAACUACAGAAAUGUAGUUGACGAGGAGGAGGUUUAUUGAAUUUUCGGCAGAUGCCUCCAAA [G13A C50U G62A]	< 1e-05		
AUAAAAGCGCCAGAACUACAGAAAUGUAGUUGACGAGGAGGAGGUUAAUCGAAGUUUCGGCGGAUGCGUCCAAA [U47A U54G C68G]	6.48e-05 ± 1.2e-05	6.96e-05 ± 1.8e-05	
AUAAAAGCGACAGAACUACAGAAAUGUAGUUGACGAGGAGGAGGUUUAUCGAAUUUUCGGGGGGUGCGUCCAAA [C10A C61G A64G C68G]	9.09e-05 ± 4.3e-05		
AUAAAAGCGCCCGAACUACAGAAAUGUAGUUGACGAGGAGGAGGUUUAUCGAAUUGUCGGCGGAUUCCUCCAAA [A12C U56G G66U]	0.000122 ± 2e-05	0.000363 ± 8e-05	

Variant	self-cleavage kobs at 640 uM GlcN6P (glucosamine-6-phosphate [1]) [s⁻¹]	self-cleavage kobs at 2500 uM GlcN6P (glucosamine-6-phosphate [2]) [s⁻¹]	self-cleavage kobs at 10000 uM GlcN6P (glucosamine-6-phosphate [3]) [s⁻¹]
AUAAAAGCGCCAGAACUACAGAAAUGUAGUUGACGAAGAGGAGGUUUAUCGAAUUUUCGGCGUCUGCCUCCAAA [G37A G63U A64C]	< 1e-05		< 1e-05
AUAAAAGCGCCAUAACUACAGAAAUGUAGUUGACGAGGAGUAGGUUUAUCGCAUUUUCGGCGGAUGCCUCCAAA [G13U G41U A52C]	< 1e-05		
AUAAAAGCGCCAGAACUACAGAAAUGUAGUUGACAUGGAGAAGGUUUAUCGAAUUUUAGGCGGAUGCCUCCAAA [G35A A36U G41A C58A]	< 1e-05	< 1e-05	
AUAAAAGCGCCAGAACUACAGAAAUGUAGUUGACGAGGAGGAGGUGUAUCGAAUGUUCGGCGGAUGCCGCCAAA [U46G U55G U69G]	0.000454 ± 0.00015	6.16e-05 ± 1.8e-05	
AUAAAAGCGCCAGAACUACAGAAAUGUAGUUGACGAGCAGGAGGCUUAUCGAAUUUUCGGCGGAUGCCUACAAA [G38C U45C C70A]	< 1e-05	< 1e-05	
AUAAAAGCGCCAGAAUUACAGAAAUGUAGUUGGCGAGGAGGAGGUUUAUUGAAGUUUCGGCGGAUGCCUCCAAA [C16U A33G C50U U54G]	< 1e-05	< 1e-05	< 1e-05
AUAAAAGCGCGCGAACUACAGAAAUGUAGUUGACGAGGAGGAGGUUUAUCGAAUUUUCGGCGGAUGCCUUCAAA [C11G A12C C70U]	6.11e-05 ± 2.5e-05	8.42e-05 ± 2.9e-05	
AUAAAAGCGCAAGAACUACAGAAAUGUAGUUGACGACGAGGAGGUUUAUCGAAUUUUCGGCAGAUGCCUCCAAA [C11A G37C G62A]	< 1e-05		
AUAAAAGCGCAAGAACUACAGAAAUGUAGUUGACGAGAAGGAGGUUCAUCGAAUUUUCGGCGGAUGCCUCCAAA [C11A G38A U47C]	< 1e-05		
AUAAAAGCGCCAGCACUACAGAAAUGUAGUUGACGAGGAUGAGGUUUAUCGUAUUUUCGGCGGAUGCCUCCAAA [A14C G40U A52U]	< 1e-05		
AUAAAAGCGCGAGAAUUACAGAAAUGUAGUUGACGAAGAGGAGGCUUAUCGAAUUUUCGGCGGGUGCCUCCAAA [C11G C16U G37A U45C A64G]	< 1e-05		
AUAAAAGCGCCAUAACUACAGAAAUGUAGUUGACGAGGAGGAGGUUUAUAGAAUUUUCGGCGGUGGCCUCCAAA [G13U C50A A64U U65G]	< 1e-05	< 1e-05	
AUAAAAGCACCAGAACUACAGAAAUGUAGUUGACGAGGAGGAGCUUUAUCGAAUUUUCGGCGGAUGCUACCAAA [G9A G44C C68U U69A]	< 1e-05		
AUAAAAGCGCCAGAACUACAGAAAUGUAGUUGACGAGGAGGAGGCUGAUCUAAUUUUCGGCGGAUGCCUCCAAA [U45C U47G G51U]	< 1e-05		
AUAAAAGCGCCAGAACUACAGAAAUGUAGCUGACGAGGAGGAGGUUUAUCGAAUUUUCGGCGUAUGCCUGCAAA [U30C G63U C70G]	3.84e-05 ± 1.8e-05		
AUAAAAGCGCCUGAACUACAGAAAUGUAGUUAACGAGGAGGAGGUUUAUCGUACUUUCGGGGUAUGCCUCAAAA [A12U G32A A52U U54C C61G G63U C71A]	< 1e-05	< 1e-05	
AUAAACGCGCUAGAACUACAGAAAUGUAGUUGACGAGGAGGAGGUUUAUCCAAUUUUCGGCGGAUGGAUCCAAA [A6C C11U G51C C67G C68A]	0.000105 ± 2.8e-05	0.00015 ± 3.5e-05	
AUAAAAGCGCAAGAAAUACAGAAAUGUAGUUGACGAGGAGGAGGUUUAUGGAAUUUUCGGCGGAUGCCUCCAAA [C11A C16A C50G]	0.000146 ± 4.5e-05	8e-05 ± 2.7e-05	
AUAAAAGGGCCAGAGCUACAGAAAUGUAGUUGACGAGGAUGAGGUUUAUCGAAUUUUCGGCGGAUGCCUCCAAA [C8G A15G G40U]	< 1e-05		
AUAAAACCGCCGGAACUACAGAAAUGUAGUUGACGAGGAGGAGGUGAAUCGAAUUUUCGGCGGAUGCCUCCAAA [G7C A12G U46G U47A]	< 1e-05		
AUAAAAGCGCCAUAACUACAGAAAUGUAAUUGUCGAGGAGGAGGUUUAUCGAAUUUUCGGCGGAUGCCUCCAAA [G13U G29A A33U]	< 1e-05		
AUCAAAGCGCCAGAACUACAGAAAUGUAGUUGACGAGGAGGAGGAUUAUCGAAUUUUCGGCGGAAGCCUCCAAA [A3C U45A U65A]	0.00508 ± 0.0012	0.00657 ± 0.001	
AUAAAAGCGCCAGAAAUACAGAAAUGUAGUUAACGAGGAGGAGGUUUAUCGAAUUUUCGGCGGAUGCCUGCAAA [C16A G32A C70G]	7.42e-05 ± 3e-05		0.000127 ± 3.4e-05
AUAAAAGCGCCAAAACUACAGAAAUGUAGUUGACGAGGAGGAGGUUUAUCGAAUUAUCGGCGGAUGACGCCAAA [G13A U56A C67A U69G]	0.000128 ± 3.8e-05		
